These results are taken from IntAct's records for PubMed 31515488.

B1: E3 ubiquitin-protein ligase RNF8 (Homo sapiens), O76064 (parent)
chain: MGEPGFFVTGDRAGGRSWCLRRVGMSAGWLLLEDGCEVTVGRGFGVTYQLVSKICPLMISRNHCVLKQNPEGQWTIMDNKSLNGVWLNRARLEPLRVYSIHQGDYIQLGVPLENKENAEYEYEVTEEDWETIYPCLSPKNDQMIEKNKELRTKRKFSLDELAGPGAEGPSNLKSKINKVSCESGQPVKSQGKGEVASTPSDNLDPKLTALEPSKTTGAPIYPGFPKVTEVHHEQKASNSSASQRSLQMFKVTMSRILRLKIQMQEKHEAVMNVKKQTQKGNSKKVVQMEQELQDLQSQLCAEQAQQQARVEQLEKTFQEEEQHLQGLEIAQGEKDLKQQLAQALQEHWALMEELNRSKKDFEAIIQAKNKELEQTKEEKEKMQAQKEEVLSHMNDVLENELQCIICSEYFIEAVTLNCAHSFCSYCINEWMKRKIECPICRKDIKSKTYSLVLDNCINKMVNNLSSEVKERRIVLIRERKAKRLF
partner: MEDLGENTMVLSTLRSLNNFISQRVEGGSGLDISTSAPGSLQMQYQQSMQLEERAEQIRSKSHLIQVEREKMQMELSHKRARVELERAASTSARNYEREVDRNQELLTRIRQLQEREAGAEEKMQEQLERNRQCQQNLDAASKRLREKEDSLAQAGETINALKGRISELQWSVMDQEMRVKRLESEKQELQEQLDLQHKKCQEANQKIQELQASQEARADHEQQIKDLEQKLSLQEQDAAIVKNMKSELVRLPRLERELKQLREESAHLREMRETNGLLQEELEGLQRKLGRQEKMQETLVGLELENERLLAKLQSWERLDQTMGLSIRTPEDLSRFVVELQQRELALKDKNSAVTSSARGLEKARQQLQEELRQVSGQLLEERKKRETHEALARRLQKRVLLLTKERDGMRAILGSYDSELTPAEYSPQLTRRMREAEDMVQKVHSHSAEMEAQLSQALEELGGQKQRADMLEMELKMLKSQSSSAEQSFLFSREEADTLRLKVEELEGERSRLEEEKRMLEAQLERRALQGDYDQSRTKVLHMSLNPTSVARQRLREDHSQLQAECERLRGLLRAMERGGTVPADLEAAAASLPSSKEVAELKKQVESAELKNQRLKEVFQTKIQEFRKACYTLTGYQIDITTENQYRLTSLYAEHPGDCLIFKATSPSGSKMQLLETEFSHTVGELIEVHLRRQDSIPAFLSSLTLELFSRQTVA
B2: Translation initiation factor eIF2B subunit beta (Homo sapiens), P49770 (parent)
chain: MPGSAAKGSELSERIESFVETLKRGGGPRSSEEMARETLGLLRQIITDHRWSNAGELMELIRREGRRMTAAQPSETTVGNMVRRVLKIIREEYGRLHGRSDESDQQESLHKLLTSGGLNEDFSFHYAQLQSNIIEAINELLVELEGTMENIAAQALEHIHSNEVIMTIGFSRTVEAFLKEAARKRKFHVIVAECAPFCQGHEMAVNLSKAGIETTVMTDAAIFAVMSRVNKVIIGTKTILANGALRAVTGTHTLALAAKHHSTPLIVCAPMFKLSPQFPNEEDSFHKFVAPEEVLPFTEGDILEKVSVHCPVFDYVPPELITLFISNIGGNAPSYIYRLMSELYHPDDHVL
B3: N-chimaerin (Homo sapiens), P15882 (parent)
chain: MALTLFDTDEYRPPVWKSYLYQLQQEAPHPRRITCTCEVENRPKYYGREFHGMISREAADQLLIVAEGSYLIRESQRQPGTYTLALRFGSQTRNFRLYYDGKHFVGEKRFESIHDLVTDGLITLYIETKAAEYIAKMTINPIYEHVGYTTLNREPAYKKHMPVLKETHDERDSTGQDGVSEKRLTSLVRRATLKENEQIPKYEKIHNFKVHTFRGPHWCEYCANFMWGLIAQGVKCADCGLNVHKQCSKMVPNDCKPDLKHVKKVYSCDLTTLVKAHTTKRPMVVDMCIREIESRGLNSEGLYRVSGFSDLIEDVKMAFDRDGEKADISVNMYEDINIITGALKLYFRDLPIPLITYDAYPKFIESAKIMDPDEQLETLHEALKLLPPAHCETLRYLMAHLKRVTLHEKENLMNAENLGIVFGPTLMRSPELDAMAALNDIRYQRLVVELLIKNEDILF
partner: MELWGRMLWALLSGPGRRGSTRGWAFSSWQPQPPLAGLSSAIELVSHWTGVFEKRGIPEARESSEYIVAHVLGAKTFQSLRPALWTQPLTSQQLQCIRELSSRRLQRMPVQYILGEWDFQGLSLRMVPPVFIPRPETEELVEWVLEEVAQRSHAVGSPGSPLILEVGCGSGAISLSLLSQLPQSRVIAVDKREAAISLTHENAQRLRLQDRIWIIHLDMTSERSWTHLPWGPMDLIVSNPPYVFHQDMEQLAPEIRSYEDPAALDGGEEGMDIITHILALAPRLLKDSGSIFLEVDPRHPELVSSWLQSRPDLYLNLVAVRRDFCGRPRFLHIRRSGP
B4: "Bile acid-CoA:amino acid N-acyltransferase" (Homo sapiens), Q14032 (parent)
chain: MIQLTATPVSALVDEPVHIRATGLIPFQMVSFQASLEDENGDMFYSQAHYRANEFGEVDLNHASSLGGDYMGVHPMGLFWSLKPEKLLTRLLKRDVMNRPFQVQVKLYDLELIVNNKVASAPKASLTLERWYVAPGVTRIKVREGRLRGALFLPPGEGLFPGVIDLFGGLGGLLEFRASLLASRGFASLALAYHNYEDLPRKPEVTDLEYFEEAANFLLRHPKVFGSGVGVVSVCQGVQIGLSMAIYLKQVTATVLINGTNFPFGIPQVYHGQIHQPLPHSAQLISTNALGLLELYRTFETTQVGASQYLFPIEEAQGQFLFIVGEGDKTINSKAHAEQAIGQLKRHGKNNWTLLSYPGAGHLIEPPYSPLCCASTTHDLRLHWGGEVIPHAAAQEHAWKEIQRFLRKHLIPDVTSQL
B5: Fanconi anemia group G protein (Homo sapiens), O15287 (parent)
chain: MSRQTTSVGSSCLDLWREKNDRLVRQAKVAQNSGLTLRRQQLAQDALEGLRGLLHSLQGLPAAVPVLPLELTVTCNFIILRASLAQGFTEDQAQDIQRSLERVLETQEQQGPRLEQGLRELWDSVLRASCLLPELLSALHRLVGLQAALWLSADRLGDLALLLETLNGSQSGASKDLLLLLKTWSPPAEELDAPLTLQDAQGLKDVLLTAFAYRQGLQELITGNPDKALSSLHEAASGLCPRPVLVQVYTALGSCHRKMGNPQRALLYLVAALKEGSAWGPPLLEASRLYQQLGDTTAELESLELLVEALNVPCSSKAPQFLIEVELLLPPPDLASPLHCGTQSQTKHILASRCLQTGRAGDAAEHYLDLLALLLDSSEPRFSPPPSPPGPCMPEVFLEAAVALIQAGRAQDALTLCEELLSRTSSLLPKMSRLWEDARKGTKELPYCPLWVSATHLLQGQAWVQLGAQKVAISEFSRCLELLFRATPEEKEQGAAFNCEQGCKSDAALQQLRAAALISRGLEWVASGQDTKALQDFLLSVQMCPGNRDTYFHLLQTLKRLDRRDEATALWWRLEAQTKGSHEDALWSLPLYLESYLSWIRPSDRDAFLEEFRTSLPKSCDL

The variants in the first test derive from B1. Conditions: with md1l1_human MAD1L1, Q9Y6D9.
Take MGEPGFFVTGDRAGGRSWCLRRVGMSAGWLLLEDGCEVTVGRGFGVTYQLVSKICPLMISRNHCVLKQNPEGQWTIMDNKSLNGVWLNRARLEPLRVYSIHQGDYIQLGVPLENKENAEYEYEVTEEDWETIYPCLSPKNDQMIEKNKELRTKRKFSLDELAGPGAEGPSNLKSKINKVSCESGQPVKSQGKGEVASTPSDNLDPKLTALEPSKTTGAPIYPGFPKVTEVHHEQKASNSSASQRSLQMFKVTMSRILRLKIQMQEKHEAVMNVKKQTQKGNSKKVVQMEQELQDLQSQLCAEQAQQQARLEQLEKTFQEEEQHLQGLEIAQGEKDLKQQLAQALQEHWALMEELNRSKKDFEAIIQAKNKELEQTKEEKEKMQAQKEEVLSHMNDVLENELQCIICSEYFIEAVTLNCAHSFCSYCINEWMKRKIECPICRKDIKSKTYSLVLDNCINKMVNNLSSEVKERRIVLIRERKAKRLF [V310L]: the “effect of a mutation on the interaction” value is reported as “with no effect”.

A further test covers variants of B2. As to conditions: with ei2bd_human EIF2B4, Q9UI10.
With MPGSAAKGSELSERIESFVETLKRGGGPRSSEEMARETLGLLRQIITDHRWSNAGELMELIRREGRRMTAAQPSETTVGNMVRRVLKIIREEYGRLHGRSDESDQQESLHKLLTSGGLNEDFSFHYVQLQSNIIEAINELLVELEGTMENIAAQALEHIHSNEVIMTIGFSRTVEAFLKEAARKRKFHVIVAECAPFCQGHEMAVNLSKAGIETTVMTDAAIFAVMSRVNKVIIGTKTILANGALRAVTGTHTLALAAKHHSTPLIVCAPMFKLSPQFPNEEDSFHKFVAPEEVLPFTEGDILEKVSVHCPVFDYVPPELITLFISNIGGNAPSYIYRLMSELYHPDDHVL [A127V], the “effect of a mutation on the interaction” value is on record as “with no effect”.

Variants of B3 are the subject of another test. As to conditions: with hemk1_human HEMK1, Q9Y5R4.
Take MALTLFDTDEYRPPVWKSYLYQLQQEAPHPRRITCTCEVENRPKYYGREFHGMISREAADQLLIVAEGSYLIRESQRQPGTYTLALRFGSQTRNFRLYYDGKHFVGEKRFESIHNLVTDGLITLYIETKAAEYIAKMTINPIYEHVGYTTLNREPAYKKHMPVLKETHDERDSTGQDGVSEKRLTSLVRRATLKENEQIPKYEKIHNFKVHTFRGPHWCEYCANFMWGLIAQGVKCADCGLNVHKQCSKMVPNDCKPDLKHVKKVYSCDLTTLVKAHTTKRPMVVDMCIREIESRGLNSEGLYRVSGFSDLIEDVKMAFDRDGEKADISVNMYEDINIITGALKLYFRDLPIPLITYDAYPKFIESAKIMDPDEQLETLHEALKLLPPAHCETLRYLMAHLKRVTLHEKENLMNAENLGIVFGPTLMRSPELDAMAALNDIRYQRLVVELLIKNEDILF [D115N]: the “effect of a mutation on the interaction” value is on record as “disrupting interaction strength”.

Another test covers variants of B4. Conditions: with FBP1, P09467.
On to MIQLTATPVSALVDEPVHIRATGLIPFQMVSFQASLEDENGDMFYSQAHYRANEFGEVDLNHASSLGGDYMGVHPMGLFWSLKPEKLLTRLLKRDVMNRPFQVQVKLYDLELIVNNKVASAPKASLTLERWYVAPGVTRIKVREGRLRGALFLPPGEGLFPGVIDLFGGLGGLLEFRASLLASRGFASLALAYHNYEDLPPKPEVTDLEYFEEAANFLLRHPKVFGSGVGVVSVCQGVQIGLSMAIYLKQVTATVLINGTNFPFGIPQVYHGQIHQPLPHSAQLISTNALGLLELYRTFETTQVGASQYLFPIEEAQGQFLFIVGEGDKTINSKAHAEQAIGQLKRHGKNNWTLLSYPGAGHLIEPPYSPLCCASTTHDLRLHWGGEVIPHAAAQEHAWKEIQRFLRKHLIPDVTSQL [R201P], for which the “effect of a mutation on the interaction” value was “with no effect”.

Turning to MIQLTATPVSALVDEPVHIRATGLIPFQMVSFQASLEDENGDMFYSQAHYRANEFGEVDLNHASSLGGDYMGVHPMGLFWSLKPEKLLTRLLKRDVMNRPFQVQVKLYDLELIVNNKVASAPKASLTLERWYVAPGVTRIKVREGRLRGALFLPPGEGLFPGVIDLFGGLGGLLEFRASLLASRGFASLALAYHNYEDLPRKPEVTDLEYFEEAANFLLRHPKVFGSGVGVVSVCQGVQIGLSMAIYLKQVTATVLINGTNFPFGIPQVYHGQIHQPLPHSAQLISTNALGLLELYRTFETTQAGASQYLFPIEEAQGQFLFIVGEGDKTINSKAHAEQAIGQLKRHGKNNWTLLSYPGAGHLIEPPYSPLCCASTTHDLRLHWGGEVIPHAAAQEHAWKEIQRFLRKHLIPDVTSQL [V304A], the “effect of a mutation on the interaction” value is “with no effect”.

Variants of B4 are the subject of a further test. As to conditions: with fhl3_human FHL3, Q13643.
For the variant MIQLTATPVSALVDEPVHIRATGLIPFQMVSFQASLEDENGDMFYSQAHYRANEFGEVDLNHASSLGGDYMGVHPMGLFWSLKPEKLLTRLLKRDVMNRPFQVQVKLYDLELIVNNKVASAPKASLTLERWYVAPGVTRIKVREGRLRGALFLPPGEGLFPGVIDLFGGLGGLLEFRASLLSSRGFASLALAYHNYEDLPRKPEVTDLEYFEEAANFLLRHPKVFGSGVGVVSVCQGVQIGLSMAIYLKQVTATVLINGTNFPFGIPQVYHGQIHQPLPHSAQLISTNALGLLELYRTFETTQVGASQYLFPIEEAQGQFLFIVGEGDKTINSKAHAEQAIGQLKRHGKNNWTLLSYPGAGHLIEPPYSPLCCASTTHDLRLHWGGEVIPHAAAQEHAWKEIQRFLRKHLIPDVTSQL [A182S], the “effect of a mutation on the interaction” value is listed as “with no effect”.

The next test covers variants of B5. Conditions: with mbip1_human MBIP.
In the case of S7F, the “effect of a mutation on the interaction” value was “with no effect”.

As for T297I, the “effect of a mutation on the interaction” value is on record as “with no effect”.

Variants of B5 are the subject of a further test. As to conditions: with KRT15, P19012.
For the variant S7F, the “effect of a mutation on the interaction” value is recorded as “with no effect”.

As to T297I, the “effect of a mutation on the interaction” value is “with no effect”.

A further test covers variants of B5. Conditions: with cenpr_human ITGB3BP.
For S7F, the “effect of a mutation on the interaction” value is “with no effect”.

On to T297I, for which the “effect of a mutation on the interaction” value is “with no effect”.

In the next test the parent is B5. As to conditions: with KRT19, P08727.
Consider S7F, for which the “effect of a mutation on the interaction” value was “with no effect”.

For the variant T297I, the “effect of a mutation on the interaction” value is reported as “with no effect”.
